Numbering of substitutions follows the chain as printed. Ends that are not written are not given here.
B1: IP237 (Fc fusion)
chain: YSEGTFTSDYSKLLEEEAVRLFIEWLVKGPGGGGGSGGGGSGGGGSGGGGSATHTCPPCPAPEF
B2: IP024 (Fc fusion)
chain: YSEGTFTSDYSKLLEEEAVRLFIEWLLAGAAAGGSGSTASSGSGSATGGGGAATHTCPPCPAPEF
B3: IP124 (Fc fusion)
chain: B2 chain with L27V, A28K
B4: IP244 (Fc fusion)
chain: B2 chain with Y10V, A31P, A32P
B5: IP085 (Fc fusion)
chain: B2 chain with A31P, A32P
B6: IP257 (Fc fusion)
chain: SEGTFTSDYSKLLEEEAVRLFIEWLVKGPGGGGGSGGGGSGGGGSGGGGSATHTCPPCPAPEF
B7: IP222 (Fc fusion)
chain: YSEGTFTSDYSKLLEEEAVRLFIEWLKNGGPSSGAPPPSAAAGGSGSTASSGSGSATGGGGAATHTCPPCPAPEF
B8: IP147 (Fc fusion)
chain: YSEGTFTSDYSKLLEEEAVRLFIEWLVKGPAPPGGSGSTASSGSGSATGGGGAATHTCPPCPAPEF
B9: IP149 (Fc fusion)
chain: B8 chain with E3Q
B10: IP249 (Fc fusion)
chain: B8 chain with V27L, K28A, G29Q, P30K, P32A, P33A
B11: IP228 (Fc fusion)
chain: B8 chain with V27K, K28N, P30G, P32A, P33A
B12: IP245 (Fc fusion)
chain: B8 chain with K12I, L13A, L14M, E15D, P32A, P33A
B13: IP236 (Fc fusion)
chain: YSEGTFTSDYSKLLEEEAVRLFIEWLVKGPGGGGGSGGGGSGGGGSATHTCPPCPAPEF
modifications: cysteine pairing not given here; also: fused to IgG1-TM Fc
B14: IP127 (Fc fusion)
chain: YSEGTFTSDVSSYLEEEAVREFIEWLLAGGAAAGGSGSTASSGSGSATGGGGAATHTCPPCPAPEF
B15: IP235 (Fc fusion)
chain: YSEGTFTSDYSKLLEEEAVRLFIEWLVKGPGGGGGSGGGGSATHTCPPCPAPEF
modifications: cysteine pairing not given here; also: fused to IgG1-TM Fc
B16: IP383 (Fc fusion)
chain: YSEGTFTSLYRILLEEEAVRLFIEWLLAGGGGGGSGGGGSGGGGSGGGGSATHTCPPC

biological target: T1, human GIP receptor (human, UniProt P48546 22-466); assay: cell-based or functional assay
T1 sequence (looked up): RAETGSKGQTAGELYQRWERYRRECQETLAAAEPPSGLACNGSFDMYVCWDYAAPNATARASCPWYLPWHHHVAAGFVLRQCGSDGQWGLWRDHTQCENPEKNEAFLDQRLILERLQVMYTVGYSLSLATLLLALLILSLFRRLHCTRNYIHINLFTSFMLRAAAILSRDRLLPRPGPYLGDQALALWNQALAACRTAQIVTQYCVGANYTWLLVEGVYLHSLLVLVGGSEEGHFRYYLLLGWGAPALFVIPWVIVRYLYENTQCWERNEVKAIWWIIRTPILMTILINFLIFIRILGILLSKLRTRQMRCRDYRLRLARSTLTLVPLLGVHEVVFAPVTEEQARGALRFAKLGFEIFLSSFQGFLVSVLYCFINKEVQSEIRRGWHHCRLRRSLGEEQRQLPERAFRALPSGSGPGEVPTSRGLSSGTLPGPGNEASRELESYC

Binder	cAMP EC50	cAMP EC50, Batch 2	cAMP EC50, Batch 4
B1	0.012 nM	–	–
B2	0.0071 nM	0.01 nM	–
B3	0.009 nM	–	–
B4	0.042 nM	–	–
B5	0.0099 nM	–	0.0065 nM
B6	180 nM	–	–
B7	0.015 nM	–	–
B8	0.0037 nM	–	–
B9	0.0081 nM	0.012 nM	–
B10	0.019 nM	–	–
B11	0.014 nM	–	–
B12	0.15 nM	–	–
B13	0.016 nM	–	–
B14	0.12 nM	–	–
B15	0.021 nM	–	–

biological target: human glucagon receptor (human, UniProt P47871 26-477); assay: cell-based or functional assay

Binder	cAMP EC50	cAMP EC50, Batch 2	cAMP EC50, Batch 4
B1	> 1800 nM	–	–
B2	17 nM	25 nM	–
B5	7.1 nM	–	3.6 nM
B7	590 nM	–	–
B8	130 nM	–	–
B9	0.2 nM	0.23 nM	–
B11	1400 nM	–	–
B16	> 1610 nM	–	–
B13	> 5500 nM	–	–
B15	> 9900 nM	–	–

biological target: T2, rat GIP receptor (rat, UniProt P43219 19-455); assay: cell-based or functional assay
T2 sequence (looked up): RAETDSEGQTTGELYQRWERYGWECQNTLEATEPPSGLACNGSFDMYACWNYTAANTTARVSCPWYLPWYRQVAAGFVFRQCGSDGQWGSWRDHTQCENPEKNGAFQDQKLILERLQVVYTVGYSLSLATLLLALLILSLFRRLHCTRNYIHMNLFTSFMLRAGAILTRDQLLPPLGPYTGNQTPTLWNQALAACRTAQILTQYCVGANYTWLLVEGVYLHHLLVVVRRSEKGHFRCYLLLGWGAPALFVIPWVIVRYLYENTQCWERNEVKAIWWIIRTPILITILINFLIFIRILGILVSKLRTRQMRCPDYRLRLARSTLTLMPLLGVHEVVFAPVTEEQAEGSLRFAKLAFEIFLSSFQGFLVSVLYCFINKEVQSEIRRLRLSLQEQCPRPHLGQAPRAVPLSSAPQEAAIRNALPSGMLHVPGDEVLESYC

Binder	cAMP EC50	cAMP EC50, Batch 4	cAMP EC50, Batch 2
B1	0.14 nM	–	–
B2	0.047 nM	–	–
B3	0.31 nM	–	–
B4	0.17 nM	–	–
B5	0.15 nM	0.031 nM	–
B6	190 nM	–	–
B7	0.72 nM	–	–
B8	6.8 nM	–	–
B9	–	–	0.19 nM
B10	0.19 nM	–	–
B11	7 nM	–	–
B12	48 nM	–	–
B16	0.976 nM	–	–
B13	0.21 nM	–	–
B14	17 nM	–	–
B15	0.65 nM	–	–

biological target: T3, mouse GLP-1 receptor (mouse, UniProt O35659 22-463); assay: cell-based or functional assay
T3 sequence (looked up): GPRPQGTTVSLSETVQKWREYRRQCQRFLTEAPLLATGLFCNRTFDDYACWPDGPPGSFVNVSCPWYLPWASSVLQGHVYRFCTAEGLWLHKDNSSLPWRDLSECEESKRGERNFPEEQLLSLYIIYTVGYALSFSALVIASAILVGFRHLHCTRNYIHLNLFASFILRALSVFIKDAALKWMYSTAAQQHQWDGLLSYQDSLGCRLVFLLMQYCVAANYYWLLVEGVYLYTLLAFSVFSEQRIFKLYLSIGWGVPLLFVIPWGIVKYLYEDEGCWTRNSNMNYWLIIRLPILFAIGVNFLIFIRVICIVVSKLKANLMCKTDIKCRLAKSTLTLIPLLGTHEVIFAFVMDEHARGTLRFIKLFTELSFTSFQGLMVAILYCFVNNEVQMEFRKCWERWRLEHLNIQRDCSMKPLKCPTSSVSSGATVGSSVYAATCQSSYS

Binder	cAMP EC50	cAMP EC50, Batch 4	cAMP EC50, Batch 2
B1	0.29 nM	–	–
B2	1.1 nM	–	–
B3	0.42 nM	–	–
B4	0.79 nM	–	–
B5	0.95 nM	0.58 nM	–
B6	46 nM	–	–
B7	0.46 nM	–	–
B8	8.5 nM	–	–
B9	–	–	0.37 nM
B10	15 nM	–	–
B11	0.69 nM	–	–
B12	4.8 nM	–	–
B16	20.1 nM	–	–
B13	0.3 nM	–	–
B14	0.6 nM	–	–
B15	0.6 nM	–	–

biological target: T4, mouse GIP receptor (mouse, UniProt Q0P543 19-460); assay: cell-based or functional assay
T4 sequence (looked up): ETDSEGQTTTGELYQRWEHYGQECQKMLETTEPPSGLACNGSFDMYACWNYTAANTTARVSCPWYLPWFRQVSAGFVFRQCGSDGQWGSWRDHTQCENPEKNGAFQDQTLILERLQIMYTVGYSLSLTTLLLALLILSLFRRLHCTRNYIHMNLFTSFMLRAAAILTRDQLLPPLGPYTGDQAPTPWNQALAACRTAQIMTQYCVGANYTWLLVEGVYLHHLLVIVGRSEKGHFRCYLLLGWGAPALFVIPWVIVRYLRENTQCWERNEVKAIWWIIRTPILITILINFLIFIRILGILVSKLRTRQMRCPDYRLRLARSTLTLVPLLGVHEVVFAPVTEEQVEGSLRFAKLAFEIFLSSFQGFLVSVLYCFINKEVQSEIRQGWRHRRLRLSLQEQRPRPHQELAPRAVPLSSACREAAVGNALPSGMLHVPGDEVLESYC

Binder	cAMP EC50	cAMP EC50, Batch 4	cAMP EC50, Batch 2
B1	170 nM	–	–
B3	130 nM	–	–
B4	3.6 nM	–	–
B5	0.72 nM	0.21 nM	–
B6	4300 nM	–	–
B7	160 nM	–	–
B9	–	–	53 nM
B10	180 nM	–	–
B12	190 nM	–	–
B16	46.7 nM	–	–
B13	460 nM	–	–
B15	2600 nM	–	–

biological target: T5, rat GLP-1 receptor (rat, UniProt P32301 22-463); assay: cell-based or functional assay
T5 sequence (looked up): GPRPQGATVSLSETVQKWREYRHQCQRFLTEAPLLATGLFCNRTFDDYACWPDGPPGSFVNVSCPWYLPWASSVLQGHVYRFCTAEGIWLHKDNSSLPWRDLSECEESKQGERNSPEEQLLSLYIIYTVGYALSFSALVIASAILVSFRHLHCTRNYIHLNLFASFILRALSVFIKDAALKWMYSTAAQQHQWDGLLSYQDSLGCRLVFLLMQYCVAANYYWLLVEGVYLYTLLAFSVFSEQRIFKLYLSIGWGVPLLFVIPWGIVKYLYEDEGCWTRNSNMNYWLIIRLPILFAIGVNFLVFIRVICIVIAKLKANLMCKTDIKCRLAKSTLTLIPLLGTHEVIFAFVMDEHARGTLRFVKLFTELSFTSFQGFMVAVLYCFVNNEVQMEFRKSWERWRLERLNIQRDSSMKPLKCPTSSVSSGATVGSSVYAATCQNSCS

Binder	cAMP EC50	cAMP EC50, Batch 4	cAMP EC50, Batch 2
B1	0.023 nM	–	–
B2	0.083 nM	–	–
B3	0.062 nM	–	–
B4	0.066 nM	–	–
B5	0.1 nM	0.023 nM	–
B6	1.3 nM	–	–
B7	0.058 nM	–	–
B8	1.1 nM	–	–
B9	–	–	0.031 nM
B10	0.15 nM	–	–
B11	0.096 nM	–	–
B12	0.4 nM	–	–
B16	0.13 nM	–	–
B13	0.024 nM	–	–
B14	0.047 nM	–	–
B15	0.037 nM	–	–

biological target: human GLP-1 receptor (human, UniProt P43220 24-463); assay: cell-based or functional assay

Binder	cAMP EC50	cAMP EC50, Batch 2	cAMP EC50, Batch 4
B1	0.095 nM	–	–
B2	0.095 nM	0.16 nM	–
B3	0.091 nM	–	–
B4	0.18 nM	–	–
B5	0.15 nM	–	0.1 nM
B6	7.2 nM	–	–
B7	0.14 nM	–	–
B8	0.067 nM	–	–
B9	0.07 nM	0.12 nM	–
B10	2.6 nM	–	–
B11	0.16 nM	–	–
B12	0.46 nM	–	–
B16	0.19 nM	–	–
B13	0.15 nM	–	–
B14	0.087 nM	–	–
B15	0.23 nM	–	–
